Test results from US20080293626A1, “Pigment epithelium-derived factor as a therapeutic agent for vascular leakage” (The Johns Hopkins University, priority 2003, published 2008).

Molecular target: PEDF receptor (unidentified cell surface receptor on bovine retinal capillary endothelial cells)
Test: cell-based or functional assay

Recombinant human pigment epithelium-derived factor (PEDF) (from UniProt P36955 20-418) (ligand)
inhibition of VEGF stimulated endothelial cell migration (BRCEC microchemotaxis chamber), IC50: 0.5 nM
